The values that follow come from US20040170601A1, “Method of improving the growth performance of an animal” (priority 2001, published 2004).

Values joined by “and” are separate entries in the source; they are usually repeats but may differ in a detail not shown here. Equal entries are not always repeated. “Also recorded” adds a separate entry of the source.

A short description of data set [1]: Example 8: growth performance of pigs administered IL-3 in a commercial piggery. It is filed as in vivo. As to the method: This trial evaluated the capacity of IL-3 to improve growth performance and immunity of pigs by comparing the growth rate and health of weaner pigs (28 day old weaners is Day 0 of the trial and the weaner period continued for 42 days) through to the finisher stage (Days 93 to 113) and slaughter (133 days after commencing the trial), which were administered with the recombinant porcine cytokine, IL-3, and saline was used as a control, with and without standard weaner medicated water and feed in a commercial piggery environment.
40 pigs per treatment were mixed in groups, with 4 replicates containing standard medicated water and feed and 4 replicates without medicated feed or water.
Overall weights for each group at the start of the experiment were equivalent. All pigs at the start of the trial (Day 0) were 28 day old male weaners.
IL-3 was provided in saline to inject 1 ml/pig.
Weights were measured at start, throughout the experiment and at the end of experiment. The trial continued for 133 days after the commencement ie. final weights were determined and animals slaughtered 133 days after the start of the weaning period. Weaning Days 0-42, Grower period Days 42-93, Finisher period Days 93-133. Treatments were administered during the weaner period only.
Blood and sera samples collected at start (before treatments) and end of the weaner period. Blood and sera were taken prior to injecting samples.
Recombinant porcine IL-3 was expressed in E. coli and purified using a polyHis tag system as described in Example 4. IL-3 was tested for biological activity in a bioassay prior to the start of the experiment.

Data set [2] has as its system cell populations in the blood. As to the kind of experiment: Example 9: porcine IL-3 on blood cell populations. It is filed as in vivo, pigs. The protocol: This trial examined the effect of administering recombinant porcine IL-3 protein on cell populations in the blood of pigs.
(§1) The experiment was conducted using medicated feed (Barastoc EziWean 150 then Bunge Grolean) ad libitum in an experimental environment (PC2 containment facilities).
Injections were administered intramuscularly in the hind leg. Pigs were 9 weeks of age at commencement of trial.
Blood samples were taken for haematology on days 0, 1, 2, 3, 4, 7, 9, 11, 15 and 17. Full haematology analysis was performed, using the Abbott Cell-Dyn 3700 and examination of selected smears were done for confirmation.

The test system of data set [3] is eosinophils. Nature of the data set: Example 10: porcine IL-3 on cell populations over a longer duration. It is filed as in vivo, pigs. Particulars: 100 μg IL-3 twice weekly for 2 weeks, followed to day 57. The protocol:
This trial compared the effects of recombinant porcine IL-3 protein on eosinophil numbers in the blood of pigs over 8 weeks.
as §1
Injections were administered intramuscularly in the hind leg. Pigs were 5 weeks of age at commencement of trial. Blood samples were taken for haematology on days 0 (prior to injection), 1, 2, 3, 4, 7, 8, 10, 11, 15, 22, 29, and 57. Full haematology analysis was performed, using the Abbott Cell-Dyn 3700. Examination of selected smears was done for confirmation.

In data set [4] the test system is eosinophils. Nature of the data set: Example 11: IL-5 and IL-3 on eosinophil production. The class given is in vivo, pigs. Conditions: single cytokine 100 μg IM days 0, 3, 7, 10. The source says:
The aim of this example was to determine if the effects of IL-3 and IL-5 act synergistically to increase eosinophil levels and antibody production.
As IL-3 stimulates the proliferation of pre-active B cells prior to the effects of IL-5, it was believed that administration of both IL-3 and IL-5 would have a greater impact on eosinophil production than the administration of either cytokine alone. An experiment was undertaken using pigs raised under clean PC2 conditions with raised floors. There were 5 treatments with 6 pigs per treatment. Pigs were 5-6 weeks of age. The animals were injected intramuscularly on days 0, 3, 7 and 10 of the experiment with either recombinant cytokines or saline. The treatments include IL-5 and IL-3 alone and given either together at the same time at different sites or to the same animal but with IL-3 being administered one week before IL-5. The treatments were as follows:
Group 3—100 μg IL-3+100 μg IL-5 (separate sites)
The pigs were bled 4 times per week for the first 2 weeks and once per week for the following 2 weeks and haematology measured using a CellDyn machine. Sera were collected also each week and tested for antibody levels.

In data set [5] the test system is Actinobacillus pleuropneumoniae. As to the kind of experiment: Example 12: Actinobacillus pleuropneumoniae (App) challenge: growth, clinical signs, lung pathology. It is filed as in vivo, pigs. An excerpt:
The following experiment was designed to determine whether IL-4 could improve the growth of immunologically challenged pigs compared to saline treated controls and positive controls treated with the non-steroidal anti-inflammatory drug (NSAID) Flunix. It was also devised to determine whether IL-4 could be delivered via plasmids.
Male pigs, with a mean starting weight of 52 kg, were allocated to 5 treatment groups (Table 8). Pigs were housed in group pens, with each pen containing a replicate from each of the treatment groups. Pigs were provided with pelleted feed and water ad libitum.
Recombinant IL-4 and saline were administered as 2 ml doses, given subcutaneously behind the ear. Plasmids were administered in 1 ml doses, given intramuscularly in the hind-leg. Flunix was administered as a 2 ml dose according to the manufacturer's instructions, and delivered intramuscularly in the neck. The timetable of administration is outlined in Table 9 below.
(§2) Due to the intermittent availability of Actinobacillus pleuropneumoniae (App), the App challenge was performed separately on the 2 rooms, resulting in different time schedules for each room, as outlined in Table 9. Prior to each challenge, pigs were treated with recombinant cytokines, flunix or plasmids as described above; the timing of treatments with respect to challenge is described in Table 9. Pigs were anaesthetised and infected intratracheally with 7.5×10^5 […] on day 0.
(§3) Briefly, assays were performed on blood samples using standard techniques, including: white blood cell counts performed using an automated cell counter; differential cell counts performed manually on stained blood smears; lymphocyte subset enumeration via flow cytometry; neutrophil function determined by flow cytometry; lymphocyte proliferation determined using a thymidine incorporation assay in response to mitogens; total IgG and IgA levels were identified using indirect sandwich ELISA; levels of mRNA for pro-inflammatory cytokines was detected by RT-PCR. TNF levels were additionally measured in serum by bioassay using L929 target cells. Pigs were weighed weekly from delivery of plasmids and for 2 weeks after challenge.
IL-4 delivered as a recombinant caused a reduction of 36% in the presence of clinical symptoms compared to pigs treated with saline, while IL-4 delivered in plasmid form produced a reduction of 62% compared to saline-treated controls (45% reduction compared to plasmid-treated controls).
At the conclusion of the trial, pigs were euthanased and the lungs removed for post-mortem examination. Lungs were scored for pleurisy from 0-5 (FIG. 79) and the degree of pleuropneumonia was determined by weighing affected lung and expressed as a percentage of total lung weight (FIG. 80).

The next data set relates to TNFα. Nature of the data set: Example 12: TNFα in serum after App challenge (bioassay, L929 target cells). The class given is in vivo, pigs. Conditions: day 13 after challenge. The protocol: as §2
(§4) […] Blood was assayed for immunological parameters as previously described.
as §3

In a further data set the test system is IL-6. As to the kind of experiment: Example 12: IL-6 in peripheral blood by RT-PCR after App challenge. The class given is in vivo, pigs. Conditions: day 13 after challenge. The protocol: as §2, §4, §3
Data set [6] concerns Brachyspira (Serpulina) hyodysenteriae. As to the kind of experiment: Example 13: swine dysentery challenge, IL-4 prophylactic. The class given is in vivo, pigs. The source says: The aim of this example was to determine whether IL-4 could improve the health of pigs infected with an enteric inflammatory pathogen causing swine dysentery, Brachyspira (Serpulina) hyodysenteriae. A further aim was to determine whether IL-4 could improve the growth rate of pigs under conditions of challenge with swine dysentery.
Male pigs with a mean starting weight of 6.5 kg, were allocated to treatment groups consisting of eight pigs (Table 10). Pigs were housed in group pens, with each pen containing a replicate from each of the treatment groups. One group of 8 pigs was housed in a separate room and left uninfected to act as untreated controls. Pigs were provided with pelleted feed and water ad libitum.
Prior to swine dysentery challenge, pigs were treated with recombinant IL-4 or saline, as described in Table 10. Cytokines and the antibiotic, Lincocin, were delivered by intramuscular injection at intervals outlined in Table 11. Pigs were infected with Brachyspira hyodysenteriae at day 0, day 1 and day 2, given as an oral bolus of 120ml of spirochaete culture in log phase of growth, containing approximately […] cells.
Faecal swabs and blood samples were taken from each pig at intervals described in Table 11. Faecal swabs were cultured for the presence of spirochaetes. Blood samples were assayed for immunological parameters as described in example 1 above. Pigs were weighed at weekly intervals throughout the experiment, which was terminated by euthanasia on days 19 and 20 after the initial challenge. At post mortem swabs from areas of the hindgut were cultured for the presence of spirochaetes, and the gross pathological condition of the gastro-intestinal tissue noted.

[7] abbreviates: day 7 prior to challenge to slaughter at days 19 and 20.

Regarding interleukin 3 [IL-3], in data set [1] (medicated), the “average warm carcass weight at slaughter above respective saline control” value is on record as “approximately 4 kg/pig”, the “average weights during the trial” value is given as “consistently showed higher average weights than all other groups”, the “final average weight higher than saline medicated control” value is “over 3.5 kg” and the “increase in total weight of all pigs compared to saline medicated group” value is listed as “approximately 10%”. Besides, the individual weight range entry in data set [1] (medicated) is listed as “more consistent weight range than other groups”. In addition, the “rate of gain during the weaner period” value in data set [1] (medicated and un-medicated) was “increased the rate of gain over the medicated and un-medicated saline controls”. Besides, in data set [1] (medicated, finisher stage), the “FCR (food conversion ratio)” value worked out at 2.52. In addition, in data set [1] (un-medicated), the “% dressing” value is “substantially higher % dressing than the respective un-medicated saline control” and the “average warm carcass weight at slaughter above respective saline control” value is recorded as approximately 2 kg/pig. Further, the “absolute eosinophils in blood” value in data set [2] (100 μg IL-3 daily for 5 days) is given as “increase in eosinophils”. Besides, the “absolute eosinophils in blood” value in data set [2] (500 μg IL-3 single dose on day 0) was “smaller increases”. In data set [2] (pig, in vivo), the basophil numbers entry was “increase in basophil numbers” and the “eosinophil index (area under the curves)” value was “although there was a biological trend it was not statistically significant”. In addition, the “absolute numbers of eosinophils in peripheral blood” value with eosinophils [3] is on record as “statistically significant increase in eosinophils”. Moreover, the “eosinophils as a percent of white blood cells” value in the data set with eosinophils [4] is listed as “did not significantly increase the percentage of eosinophils; also recorded: minor increases in comparison”.

B1: interleukin 4 (protein, UniProt Q04745 25-133, looked up)
Interleukin-4: HKCDITLQEIIKTLNILTARKNSCMELPVTDVFAAPENTTEKETFCRASTVLRHIYRHHTCMKSLLSGLDRNLSSMANMTCSVHEAKKSTLKDFLERLKTIMKEKYSKC
notes: recombinant IL-4 protein
As for B1, the “reduction in the presence of clinical symptoms compared to saline” value in data set [5] (30 visits in first week of challenge) is 36%. Moreover, in data set [5] (after 2 weeks of challenge), the “heavier than saline treated peers at the termination of the experiment” value is listed as 4.8 kg and the “improvement in growth vs saline” value is 73%. For the same molecule, the “clinical signs of disease” value in data set [5] (first week of challenge) is given as “slightly reduced clinical signs of disease compared to saline-treated controls”. For the same molecule, in data set [5] (pig, in vivo), the “growth during the (first) week of App challenge” value is given as “positive growth during the week of challenge”; the “growth in the second week of challenge” value is given as “continued to gain weight”; the “pleurisy at necropsy (score 0-5)” value is “same level of pleurisy as saline-treated controls”; the “weight gain over the 2 week period following challenge with App” value is recorded as “increased weight gain compared to saline-treated controls, although this result was not statistically significant”. In addition, the “percentage of lung affected by App lesions” value in data set [5] (vs saline-treated controls) was “greatly reduced”. For the same molecule, in the data set on TNFα, the “TNFα production (serum)” value is listed as “reduced levels of TNF production”. In the data set on IL-6, the “production of IL-6” value is “undetectable levels”. The “spirochaete shedding in faeces (faecal culture)” value in data set [6] (after challenge) is on record as “decreasing levels of spirochaete shedding by day 14 after challenge”. Also, the “reduction in the number of spirochaetes compared to saline treated pigs” value (“reduction in the number of spirochaetes” below) in data set [6] (anterior colon) came out at 93%. Moreover, in data set [6] (anterior colon, post mortem), the “gross pathology associated with dysentery” value is “reduced the signs of pathology associated with dysentery, and the severity of the pathology compared to saline in the anterior colon”. Further, the “reduction in the number of spirochaetes” value in data set [6] (caecum) is given as 91%. Further, in data set [6] (setting [7]), the “improvement in gain compared to saline or antibiotic treatment” value amounted to 24% and the “total weight gained over the challenge period” value stood at 8.5 kg. The “improvement in end weight vs saline treated pigs” value in data set [6] (days 19 and 20) is 11% and 12%. In addition, the “mean weight at the end of the trial” value in data set [6] (days 19 and 20 after infection) is given as 15.1 kg. In addition, the “reduction in the number of spirochaetes” value in data set [6] (faecal) is given as 86%. Also, in data set [6] (pig, in vivo), the “heavier than pigs treated with Lincocin at the end of the trial” value came to 15%; the “number of spirochaetes cultured from the hindgut at post mortem” value is “significantly reduced the number of spirochaetes residing in the gut compared to saline controls; also recorded: performed as well as the Lincocin antibiotic treatment in reducing the number of spirochaetes in the caecum and colon”; the variability of weight result was “reduce variability by increasing the weight gained by smaller pigs”. Moreover, in data set [6] (post mortem), the “incidence of clinical signs in faeces (of 8 pigs)” value is listed as 3 pigs; the “pigs showing bloody and mucoid faeces (of 8 pigs)” value is given as 1 pig. For the same molecule, the “reduction in the number of spirochaetes” value in data set [6] (posterior colon) was found to be 84%. Further, in data set [6] (posterior colon, post mortem), the “gross pathology associated with dysentery” value is “completely prevented the development of pathology in the posterior colon”.
